From patent US20210324028A1 (Pfizer, published 2021) come the findings set out here.

Test [1] concerns the target T1, human IL-2Rβ (human, UniProt P14784 27-240, limits assumed).
T1 construct: also called hIL-2Rβ; IL-2 receptor beta
T1 sequence (looked up): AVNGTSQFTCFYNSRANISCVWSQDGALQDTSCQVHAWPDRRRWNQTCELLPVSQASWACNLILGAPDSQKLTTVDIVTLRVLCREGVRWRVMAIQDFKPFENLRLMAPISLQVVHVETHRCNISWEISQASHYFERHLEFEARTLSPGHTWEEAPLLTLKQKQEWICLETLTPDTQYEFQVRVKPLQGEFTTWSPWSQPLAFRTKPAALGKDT
Description: SPR, steady state, fusion captured. On the procedure: (§1) Anti-human Fc sensor chips were prepared at 25° C. with a running buffer of 10 mM HEPES, 150 mM NaCl, 0.05% (v/v) Tween-20, pH 7.4. All surfaces of a Biacore CM4 sensor chip were activated with a 1:1 (v/v) mixture of 400 mM EDC and 100 mM NHS for 7 minutes, at a flow rate of 10 μL/min. An anti-human Fc reagent (Goat anti-human IgG Fc-γ specific, SouthernBiotech, Birmingham, Ala., Catalog #2014-01) was diluted to 50 μg/mL in 10 mM sodium acetate (pH 4.5) and injected on all flow cells for 7 minutes at 20 μL/min. All flow cells were blocked with 100 mM ethylenediamine in 200 mM Borate buffer pH 8.5 for 7 minutes at 10 μL/min.
(§2) All protein interaction experiments were performed at 37° C. using a running buffer of 10 mM HEPES, 150 mM NaCl, 0.05% (v/v) Tween-20, pH 7.4, 1 mg/mL BSA. Anti-PD-1-hIL-15 fusion proteins were captured at 10 μg/mL at a flow rate of 10 μL/min for 2 minutes. Different fusion proteins were captured in flow cells 2, 3 and 4. No protein was captured onto flow cell 1 which was used as a reference surface. […] After each analyte injection, dissociation was monitored for 5 minutes followed by regeneration of all flow cells with three 60-second injections of 75 mM phosphoric acid. […] For kinetic analysis, the double-referenced sensorgrams were fit globally to a simple 1:1 Langmuir with mass transport binding model using Biacore T200 Evaluation Software version 2.0. For steady-state affinity analysis, the double-referenced equilibrium binding responses were fit with a 1:1 Langmuir steady-state model using Biacore T200 Evaluation Software version 2.0.

In test [2] the target is T2, human IL-15Rα (human, UniProt Q13261 31-205, limits assumed).
T2 construct: also called hIL-15Rα; IL-15 receptor alpha
T2 sequence (Q13261 31-205 limits assumed): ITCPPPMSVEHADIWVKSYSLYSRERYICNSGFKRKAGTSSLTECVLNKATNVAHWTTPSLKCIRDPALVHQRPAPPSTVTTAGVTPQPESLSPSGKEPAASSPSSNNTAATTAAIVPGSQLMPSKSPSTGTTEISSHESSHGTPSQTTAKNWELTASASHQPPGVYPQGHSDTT
Description: SPR 37C, fusion captured by anti-human Fc. On the procedure:
as §1, §2

For test [3], the target named is T3, mouse PD-1 on doxycycline-induced 32D[pRF770+pRF791] cells (mouse, UniProt Q02242 25-288).
T3 sequence (looked up): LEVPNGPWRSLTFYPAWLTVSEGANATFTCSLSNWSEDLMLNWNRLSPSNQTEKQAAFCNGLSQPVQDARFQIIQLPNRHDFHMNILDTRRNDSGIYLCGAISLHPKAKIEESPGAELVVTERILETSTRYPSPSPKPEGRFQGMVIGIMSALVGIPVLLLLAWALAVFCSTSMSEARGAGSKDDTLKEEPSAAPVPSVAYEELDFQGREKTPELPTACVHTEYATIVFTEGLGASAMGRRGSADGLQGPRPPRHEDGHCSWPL
Put plainly: cell-based or functional assay.

The target of test [4] is T4, IL-15 signaling receptor on 32D[pRF770+pRF791] cells (human CD122 plus mouse CD132) (human; mouse, UniProt P14784 27-551; P34902 23-369).
T4 sequence (looked up) 1: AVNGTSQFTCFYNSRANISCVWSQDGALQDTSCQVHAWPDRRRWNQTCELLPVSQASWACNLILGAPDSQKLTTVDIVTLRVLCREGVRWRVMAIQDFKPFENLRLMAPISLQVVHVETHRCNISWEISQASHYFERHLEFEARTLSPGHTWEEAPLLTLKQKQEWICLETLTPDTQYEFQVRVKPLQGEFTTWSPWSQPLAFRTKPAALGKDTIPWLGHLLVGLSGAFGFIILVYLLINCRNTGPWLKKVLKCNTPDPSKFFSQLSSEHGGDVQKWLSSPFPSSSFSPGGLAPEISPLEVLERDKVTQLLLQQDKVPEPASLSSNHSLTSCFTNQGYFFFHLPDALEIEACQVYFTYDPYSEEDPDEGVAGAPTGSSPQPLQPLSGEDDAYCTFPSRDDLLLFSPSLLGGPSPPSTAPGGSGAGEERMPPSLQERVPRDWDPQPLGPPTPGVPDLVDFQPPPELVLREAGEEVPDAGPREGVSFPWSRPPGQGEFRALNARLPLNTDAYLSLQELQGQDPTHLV
T4 sequence (looked up) 2: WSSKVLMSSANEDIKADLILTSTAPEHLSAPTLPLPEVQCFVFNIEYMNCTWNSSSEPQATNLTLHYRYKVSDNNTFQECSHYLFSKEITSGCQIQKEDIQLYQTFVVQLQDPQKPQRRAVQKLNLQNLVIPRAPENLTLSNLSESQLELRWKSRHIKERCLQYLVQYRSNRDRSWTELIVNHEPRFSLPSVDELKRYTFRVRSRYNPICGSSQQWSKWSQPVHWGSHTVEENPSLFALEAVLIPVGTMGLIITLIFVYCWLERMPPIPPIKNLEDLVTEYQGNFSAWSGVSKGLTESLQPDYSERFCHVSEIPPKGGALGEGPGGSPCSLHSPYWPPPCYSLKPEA
Description: cell-based or functional assay.

For test [5], the target named is T3, mouse PD-1 on doxycycline-induced …. Description: cell-based or functional assay. This is another data set of the same source.
Test [6] deals with T4, IL-15 signaling receptor on …. Description: cell-based or functional assay. The source holds these as a separate data set.
The target in test [7] is T1, human IL-2Rβ. Put plainly: SPR, fusion captured. The protocol:
as §1, §2
In general terms: SPR reads the build-up and loss of mass on a sensor chip optically.

Positions count from the first letter of the chain named. Names and notes keep the numbering of the source. Where two headings read alike, the source gives them in different places. A value given as a limit tells only on which side of the number the result lay.

B1: xmPD-1-hIL15 NQ-3d (other)
heavy 1: HHHHHHHHGGGGSGSGGEVQLVESGGGLVKPGGSLELSCAASGFTFSSYWMSWVRQAPEKGLEWVAAISPSGGSTYYADSVKGRFTISRDNAKNTLFLQMTSLRSEDTAMYYCAKESWGAYYDLWGQGTTVTVSSASTKGPSVFPLAPCSRSTSESTAALGCLVKDYFPEPVTVSWNSGALTSGVHTFPAVLQSSGLYSLSSVVTVPSSNFGTQTYTCNVDHKPSNTKVDKTVERKCRVRCPRCPAPPVAGPSVFLFPPKPKDTLMISRTPEVTCVVVAVSHEDPEVQFNWYVDGVEVHNAKTKPREEQFNSTFRVVSVLTVVHQDWLNGKEYKCKVSNKGLPSSIEKTISKTKGQPREPQVYTLPPSREEMTKNQVSLTCLVKGFYPSDIAVEWESNGQPENNYKTTPPMLDSDGSFFLYSRLTVDKSRWQQGNVFSCSVMHEALHNHYTQKSLSLSPGK
heavy 2: EVQLVESGGGLVKPGGSLELSCAASGFTFSSYWMSWVRQAPEKGLEWVAAISPSGGSTYYADSVKGRFTISRDNAKNTLFLQMTSLRSEDTAMYYCAKESWGAYYDLWGQGTTVTVSSASTKGPSVFPLAPCSRSTSESTAALGCLVKDYFPEPVTVSWNSGALTSGVHTFPAVLQSSGLYSLSSVVTVPSSNFGTQTYTCNVDHKPSNTKVDKTVERKCEVECPECPAPPVAGPSVFLFPPKPKDTLMISRTPEVTCVVVAVSHEDPEVQFNWYVDGVEVHNAKTKPREEQFNSTFRVVSVLTVVHQDWLNGKEYKCKVSNKGLPSSIEKTISKTKGQPREPQVYTLPPSREEMTKNQVSLTCEVKGFYPSDIAVEWESNGQPENNYKTTPPMLDSDGSFFLYSKLTVDKSRWQQGNVFSCSVMHEALHNHYTQKSLSLSPGSGGGGGTSATATPGANWVNVISDLKKIEDLIQSMHIDATLYTESDVHPSCKVTAMKCFLLQLQVISLQSGDASIHDTVENLIILANNSLSSNGNVTESGCKECEELEQKNIKEFLQSFVHIVQMFINT
light: DIVMTQSPSSLSVSAGDKVTMSCRASQGISSWLAWYQQKPWQPPKLLIYKASTLESGVPDRFTGSGSGTDFTLTISSVQAEDLAVYYCQQSYSTPWTFGGGTKLEIKGTVAAPSVFIFPPSDEQLKSGTASVVCLLNNFYPREAKVQWKVDNALQSGNSQESVTEQDSKDSTYSLSSTLTLSKADYEKHKVYACEVTHQGLSSPVTKSFNRGEC
notes: also called xmPD-1-IL15 NQ-3d; xmPD-IL15 NQ3d
The term Kd denotes the equilibrium constant for the complex coming apart. Read a low Kd as a tighter complex. In test [1], B1 gave a Kd of 446 nM. In test [2], the binding result is recorded as “no binding (tested: 3000 nM)”. In test [3], the “Fold change = EC50 (PD-1(low))/EC50 (PD-1+)” value (shortened to “Fold change = EC50”) worked out at 163 fold and the “pSTAT5 EC50 on PD-1+ 32D reporter cells” value amounted to 22.9 pM. Further, in test [4], the “pSTAT5 EC50 on PD-1(low) 32D reporter cells” value amounted to 3.73 nM.

B2: xmPD-1-IL15 m1 (other)
heavy 1: EVQLVESGGGLVKPGGSLELSCAASGFTFSSYWMSWVRQAPEKGLEWVAAISPSGGSTYYADSVKGRFTISRDNAKNTLFLQMTSLRSEDTAMYYCAKESWGAYYDLWGQGTTVTVSSASTKGPSVFPLAPSSKSTSGGTAALGCLVKDYFPEPVTVSWNSGALTSGVHTFPAVLQSSGLYSLSSVVTVPSSSLGTQTYICNVNHKPSNTKVDKKVEPKSCDKTHTCPPCPAPEAAGAPSVFLFPPKPKDTLMISRTPEVTCVVVDVSHEDPEVKFNWYVDGVEVHNAKTKPREEQYNSTYRVVSVLTVLHQDWLNGKEYKCKVSNKALPAPIEKTISKAKGQPREPQVYTLPPCREEMTKNQVSLSCAVKGFYPSDIAVEWESNGQPENNYKTTPPVLDSDGSFFLVSKLTVDKSRWQQGNVFSCSVMHEALHNHYTQKSLSLSPGSGGGGSGGGGSGGGGAWVNVISDLKKIEDLIQSMHIDATLYTESNVHPSCKVTAMKCFLLGLQRISLESGDASIHDTVENLIILANNSLSSNGNVTESGCKECEELEEKNIKEFLQSFVHIVQMFINTS
heavy 2: EVQLVESGGGLVKPGGSLELSCAASGFTFSSYWMSWVRQAPEKGLEWVAAISPSGGSTYYADSVKGRFTISRDNAKNTLFLQMTSLRSEDTAMYYCAKESWGAYYDLWGQGTTVTVSSASTKGPSVFPLAPSSKSTSGGTAALGCLVKDYFPEPVTVSWNSGALTSGVHTFPAVLQSSGLYSLSSVVTVPSSSLGTQTYICNVNHKPSNTKVDKKVEPKSCDKTHTCPPCPAPEAAGAPSVFLFPPKPKDTLMISRTPEVTCVVVDVSHEDPEVKFNWYVDGVEVHNAKTKPREEQYNSTYRVVSVLTVLHQDWLNGKEYKCKVSNKALPAPIEKTISKAKGQPREPQVCTLPPSREEMTKNQVSLWCLVKGFYPSDIAVEWESNGQPENNYKTTPPVLDSDGSFFLYSKLTVDKSRWQQGNVFSCSVMHEALHNHYTQKSLSLSPGK
light: B1 light
notes: also called xmPD-1-hIL15 V49R/E46G/N1A/D30N
As for B2, in test [5], the “Fold change = EC50” value came out at 1450 fold and the “pSTAT5 EC50 on PD-1+ 32D reporter cells” value turned out to be 53.1 pM. Moreover, the “pSTAT5 EC50 on PD-1(low) 32D reporter cells” value in test [6] is 76.9 nM. The molecule further displayed a Kd in test [1] of 433 nM. For the same molecule, in test [2], the binding result is given as “no binding (tested: 3000 nM)”.

B3: xmPD-1-IL15 m2 (other)
heavy 1: B2 heavy 1 with A463G, E526Q
heavy 2: B2 heavy 2
light: B1 light
notes: also called xmPD-1-hIL15 V49R/E46G/N1G/E64Q/D30N
On to B3, for which, in test [5], the “Fold change = EC50” value turned out to be 2370 fold and the “pSTAT5 EC50 on PD-1+ 32D reporter cells” value was 0.31 nM. Further, the “pSTAT5 EC50 on PD-1(low) 32D reporter cells” value in test [6] stood at 734 nM. Further, in test [7], the Kd is over 1500 nM. Further, the binding result in test [2] was “no binding (tested: 3000 nM)”.

B4: xmPD-1-hIL15 V49R/E46G/E64Q/D30N (other)
heavy 1: B1 heavy 1
heavy 2: B1 heavy 2 with D488N, Q504G, V507R, Q511E, E522Q, Q551E
light: B1 light
notes: not restated for this mutant; also called xmPD-IL15 V49R/E46G/E64Q/D30N
Turning to B4, the Kd in test [7] was over 3000 nM. Besides, the binding result in test [2] is reported as “no binding (tested: 3000 nM)”. In test [3], the “Fold change = EC50” value worked out at 715 fold and the “pSTAT5 EC50 on PD-1+ 32D reporter cells” value worked out at 0.137 nM. Also, the “pSTAT5 EC50 on PD-1(low) 32D reporter cells” value in test [4] turned out to be 98 nM.
